# Assay: yeast display, Sf9 membrane polyspecificity reagent, FACS + sequencing; frameworks hold sequencing errors
# In short: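 Synthetic nanobody libraries on Saccharomyces cerevisiae BJ5465 were galactose-induced for 36–48 hours, stained 1 hour at 4 °C with 10% biotinylated, detergent-solubilized Sf9 membrane reagent and enriched on streptavidin microbeads. FACS then separated cells into low and high (top ~1%) gates by anti-HA (expression) and streptavidin (reagent binding) fluorescence. Genes were colony-PCR amplified, MiSeq 2 × 250 sequenced and CDR-length filtered. A clone's polyreactivity label is that of its gate of origin.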
row,Sequence,polyreactivity (PSR sort gate)
1,QVQLVESGGGLVQAGGSLRLSCAASGRTFYTYAMGWYRQAPGKESELVATIRWSGGSTRYADSVKGRFTISRDYAKNTVYLQMNSLKPEDTAVYYCAADNYYRRKYKYDYWGQGNQVTVSS,high polyreactivity
2,QVQLVESGGGLVQAGGSLRLSCAASGRTFYTYTMGWYRQAPGKERELVAAISKSGTSTYYADSVKGRFTISRDNAKNTVYLQMNSLKPEDTAVYYCAARAYYARFLMGYWGQGTQVTVSS,high polyreactivity
3,QVQLVESGGGLVQAGGSLRLSCAASGRTFYTYVMGWYRQAPGKEREFVAAITYSGGSTYYADSVKGRFTISRDNAKNTVYLQMNSLKPEDTAVYYCNAEWTYSEWYGQYLEFDYWGQGTQVTVSS,high polyreactivity
4,QVQLVESGGGLVQAGGSLRLSCAASGRTFYVNAMGWYRQAPGKEMELVAAITNGGRTNYADSVKGRFTISRDNAKNTVYLQMNSLKPEDTAVYYCNKVSLRTQSAQFHYWGQGTQVTVSS,high polyreactivity
5,QVQLVESGGGLVQAGGSLRLSCAASGRTFYVYAMGWYRQAPGKERELVAAISADGGRTYYADSVKGRFTISRDNAKNTVYLQMNSLKPEDTAVYYCAAWRHTLGDYWGQGTQVNVSS,high polyreactivity
6,QVQLVESGGGLVQAGGSLRLSCAASGRTFYVYAMGWYRQAPGKERELVAAISWSGGSTYYADSVKGRFTISRDNAKNTVYLQMNSLKPEDTAVYYCAAQTYQRHVVAYDYWGQGTQVTVSS,low polyreactivity
7,QVQLVESGGGLVQAGGSLRLSCAASGRTFYVYAMGWYRQAPGKERELVAAITSGGRTYYADSVKGRFTISRDNAKNTVYLQMNSLKPEDTAVYYCAVGNGLSRYVYGDYDYWGQGTQVTVSS,high polyreactivity
8,QVQLVESGGGLVQAGGSLRLSCAASGRTFYVYTMGWYRQAPGKERELVAAITSGGSTNYADSVKGRFTISRDNAKNTVYLQMNSLKPEDTAVYYCAARVSTVFKRYYYCGQGTQVTVSS,high polyreactivity
9,QVQLVESGGGLVQAGGSLRLSCAASGRTFYWNAMGWYRQAPGKEREFVAAITNTAGSTYYADSVKGRFTISRDNAKNTVYLQMNSLNPEDTAVYYCAKSGNGGYRTYLRDYWGQGTQVTVSS,low polyreactivity
10,QVQLVESGGGLVQAGGSLRLSCAASGRTFYWNTMGWYRQAPGKERELVAAINYSGGSTYYADSVKGRFTISRDNAKNTVYLQMNSLKPEDTAVYYCAAYFHGYKSLHRARSEYNYWGQGTQVNVSS,high polyreactivity
11,QVQLVESGGGLVQAGGSLRLSCAASGRTFYWYVMGWYRQAPGKERELVATITSGGSSNYADSVKGRFTISRDNAKNTVYLQRNSLKPEDTAVYYCNRDRLVRYEAEYDYWGQGTQVTVSS,low polyreactivity
12,QVQLVESGGGLVQAGGSLRLSCAASGRTFYYNAMGWYRQAPGKERELVAAISSRGGNTYYADSVKGRFTISRDNAKNTVYYQMNSLKPEDTAVYYCARRYPYPAYEYGYWGQGTQVTVSS,high polyreactivity
13,QVQLVESGGGLVQAGGSLRLSCAASGRTFYYNAMGWYRQAPGKERELVAAISWSGGSTYYADSVKGRFTISRDNAKNTVYLQMNSLKPEDTAVYYCAADYEYSRAYGYDYWGQGTQVTVSL,low polyreactivity
14,QVQLVESGGGLVQAGGSLRLSCAASGRTFYYNPMGWYRQAPGKERELVAAITQSGGRTYYADSVKGRFTISRDNAKNTVYVQMNSVKPEDSAVYYFYAVRPVRGYIYQGYNYWGQGTQVTVSS,high polyreactivity
15,QVQLVESGGGLVQAGGSLRLSCAASGRTFYYNTKGWYRQAPGKERELVASISGSGGRTYFADSVKGRFTISRDTAKNTVYLQMNSLKPEDTAVYYCASSRARRSRYILDYWGQGTQVTVSS,high polyreactivity
16,QVQLVESGGGLVQAGGSLRLSCAASGRTFYYNTMGWYRQAPGKERELVAALSSRGGTTSYADSVKGRFTISRDNAKNSVYLQMNSLKPEDTAVYYCNAETYRRGSYDYWGQGTQVTVSS,high polyreactivity
17,QVQLVESGGGLVQAGGSLRLSCAASGRTFYYNTMGWYRQAPGKERELVATISRIGGSTYYADSVKGRFTISRDNAKNTVYLQMNSLKPEDTAVYYCAKGRSLNGRPPVVYWQLFYYWGQGTQVTVSS,high polyreactivity
18,QVQLVESGGGLVQAGGSLRLSCAASGRTFYYNTMGWYRQAPGKERELVATITSSGGRTYYADSVKGRFTISRDYAKNTVYLQMNSLKPEDTAVYYCNAALSRAFKHSTGYDYWGQGTQVTVSS,low polyreactivity
19,QVQLVESGGGLVQAGGSLRLSCAASGRTFYYYALGWDRQAPAKERELVAAIRWRGGRTYADSVKGRFTISRDNAKNTVYVQMNSLKPEDTAVYYCAVESFYRHASLYDYWGQGTQVTVSS,high polyreactivity
20,QVQLVESGGGLVQAGGSLRLSCAASGRTFYYYAMGWYRQAPGKERELVAAISWSGGRTYYADSVKGRFTISRDNAKNTFYLQMNSMNPEDTAVYYCAADKYYSEFDYWGQGTQVTVSS,low polyreactivity
21,QVQLVESGGGLVQAGGSLRLSCAASGRTFYYYAMGWYRQAPGKERELVAGITATGSSTYYADSVKGRFTISRDNAKNTVYLQMNSLKPEDTAVYYCAADRYTTYSGQWSYPYDYWGQGTQVTVSS,low polyreactivity
22,QVQLVESGGGLVQAGGSLRLSCAASGRTFYYYAMGWYRQAPGKERELVASITFSGGRTYYADSVKGRFTISRDNAKNTVYLQMNSLKPEDTAVYYFARPYYGRYYPNYGVTGVDYWGQGTQVTVSS,high polyreactivity

row,Sequence,polyreactivity (PSR sort gate)
1,QVQLVESGGGLVQAGGSLRLSCAASGRTFYYYAMGWYRQAPGKERELVAVIRSSGDSTYYADSVKGRFTISRDNAKNTVYLQMNSLKPEDTAVYYCNADDWAYGMDYWGQGTQVTVSS,low polyreactivity
2,QVQLVESGGGLVQAGGSLRLSCAASGRTFYYYTMGWSRQAPGKERELVAAITSVGSTSYADSVKGRFTISRANAKNTVYLQMNSPKPEATAVYYCAADYQYVWFYYWGQGTQVTVSS,high polyreactivity
3,QVQLVESGGGLVQAGGSLRLSCAASGRTFYYYVMGWYRQAPGKERELVAAITKSTGSTYYADSVKGRFTISRDNAKNTVYLQMNSLKPEDTAVYYCAAAYWITTPYDYWGQGTQVTVSS,low polyreactivity
4,QVQLVESGGGLVQAGGSLRLSCAASGRTGSYAMGWYRQAPGQERELVAAISRRGANTYYADSVKGRFTISRDNAKNTVYLQMNSLKPEVTAVYYCAVPHLYSRVEYDYWGQGSQVTVSS,high polyreactivity
5,QVQLVESGGGLVQAGGSLRLSCAASGRTIDLNAMGWYRQAPGKERELVAAITSSGSTNYADSVKGRFTISRDNAKNTVYLQMNSLKPDDTAVYYCNKDPIYSAEYWVGSVGFDYWGQGTQVTVSS,low polyreactivity
6,QVQLVESGGGLVQAGGSLRLSCAASGRTIDSNAMGWYRQAPGKERELVAAISSDGGSTYYADSVKGRFTISRDNAKNTVYLQMNSLKPEDTAVYYCNAYYGRFPYYADDYWGQGTQVTVSS,low polyreactivity
7,QVQLVESGGGLVQAGGSLRLSCAASGRTIDYNGRGSYRQAPGKERELVAVISSSGGSPFYADSVKGRFTISRDNAKNTVYLQMNSLKPEDTAVYYCAADFIVAYTLHGSYDYWGQGTQVTVSS,low polyreactivity
8,QVQLVESGGGLVQAGGSLRLSCAASGRTIFRYAMGWYTQAPGKERDLVAAITWSGGTTYYADSVKGRFTISRDNAKNTVYLQMNSLKPEDTAVYYCNARGLWYRRVVTYGYWGQGTQVTVSS,high polyreactivity
9,QVQLVESGGGLVQAGGSLRLSCAASGRTIGLYDMGWYRQAHGKERELVAGITRRGGRTYYADSVKGRFTISRDNAKNSVYLQMNSLKPEDTAVYYCAAGTIYLRHAQSPFDYWGQGTQGTVSS,high polyreactivity
10,QVQLVESGGGLVQAGGSLRLSCAASGRTIIFNAMGWYRPAPGKERELVAAISSGGGTNYADSVKGRFTISRDNAKNTVYLQMNSLKPEDTAVYYCAADPRDHYSYVYDGYKYDYWGQGTQVTVSS,low polyreactivity
11,QVQLVESGGGLVQAGGSLRLSCAASGRTIITYAMGWYRQAPGKERELVAAINSTDGTSYADSVKGRFTISRDNAKNTVYLQMNSLKPEDTAVYYCARGTEVKSGISYRFYYWGQGTQVTVSS,low polyreactivity
12,QVQLVESGGGLVQAGGSLRLSCAASGRTIIYYGMGWYRQAPGKERELVAAISLRGSSTRYADSVKGRFTISRDNAKNTVYLQMNSLKPEDTAVYYCAARPRLSRYDYWGQGTQVTVSS,high polyreactivity
13,QVQLVESGGGLVQAGGSLRLSCAASGRTIKYYAMGWYRQAPGKESELVAAISSSGGRTNYADSVKGRFTISRDNANNTVYLQMNSLKPEDTAVYYCAARFYKTYPRMNYWGQGTQVTVSS,high polyreactivity
14,QVQLVESGGGLVQAGGSLRLSCAASGRTILVYAMGWYRPAPGKERELVAAISSDGSTNYADSVKGRFTISRDNAMNTVYLQMNSLNPEDTAVYYCARDYYAVSYLYDYWGQGTQVTVSS,low polyreactivity
15,QVQLVESGGGLVQAGGSLRLSCAASGRTIPSNAMGWYRQAPGKERELVAAITRSGGSTKYADSVKGRFTISRDNAKNTVYLQMNSLKPEDTAVYYCAGRYHSGSQVWYNYWGQGSQVTVSS,high polyreactivity
16,QVQLVESGGGLVQAGGSLRLSCAASGRTIRAYTMGWSRQAPGKERELVAAISTPGGSTYYADSVKGRFTISRDNAKNTVYLQMNSLKPEDTAVYYCAADYGGPITGYEYWGQGTQVTVSS,low polyreactivity
17,QVQLVESGGGLVQAGGSLRLSCAASGRTIRGNAMGWYRQAPGKERELVAAITRSGASTTYADSVKGRFTISRDNAKNTVYLQMNSLKPEDTAVYYCAARSGAVKYSSYYYWGQGTQVTVSS,high polyreactivity
18,QVQLVESGGGLVQAGGSLRLSCAASGRTIRHNAMGWYRQAPGKERELVAAISRSGGSTYYADSVKGRFTISRDNAKNTVYLQMNSLKREDTAVYYCAAGYHGYDWGQGTQVTVSS,high polyreactivity
19,QVQLVESGGGLVQAGGSLRLSCAASGRTIRRNAMGWYRQAPGKERELVAGISGSGTITYADSVKGRFTISRDNAKNTVYLQMNSLKPEDTAVYYCAARRKSFYTFYYWGQGTQVTVSS,high polyreactivity
20,QVQLVESGGGLVQAGGSLRLSCAASGRTIRWNAMGWYRPAPGKERELVAAITSRGGSTYYADSVKGRFTISRDNAKNTVYLQMNSLKPEDTAVYYCAARRRSAQSGSYNHWGQGTQVTVSS,high polyreactivity
21,QVQLVESGGGLVQAGGSLRLSCAASGRTIRWNDMGWYRQAPGKERELVAAITSRGGSTYYADSVKGRFTISRDNAMNTVYFQMNSLKPEDTAVYYCAKQPKPPPVTGYDYWGQGSQVTVSS,high polyreactivity

# Source: the nanobody polyreactivity screen of Harvey et al. (2022)
